± gives the standard deviation of the averaged measurements.
Columns and labels:
Saccharomyces cerevisiae [1] = experiment: protein stability index of tFT-peptide fusion (C-terminal peptide) (PSI (0-1 scale)); higher = more stable (slower turnover); conditions: genetic background: wild type; temperature: 30 C
Saccharomyces cerevisiae [2] = experiment: as above
Procedure: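 MPS profiling in S. cerevisiae of the tFT-X12 degron library: putative degron peptides plus stable controls, 12 aa, fused to the C-terminus of a sfGFP-mCherry timer. Cells are FACS-sorted into 8 mCherry/sfGFP bins and deep-sequenced. PSI runs from 0 (unstable) to 1 (stable). Backgrounds are wild type, das1Δ and doa10Δ at 30 °C, and wild type, das1Δ, cdc34-1 and cdc53-1 at 37 °C; 2-3 technical replicates each.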

[3] = genetic background: cdc34-1, temperature: 37 C
[4] = genetic background: cdc53-1, temperature: 37 C
[5] = genetic background: das1 deletion, temperature: 30 C
[6] = genetic background: das1 deletion, temperature: 37 C
[7] = genetic background: doa10 deletion, temperature: 30 C
[8] = genetic background: wild type, temperature: 30 C
[9] = genetic background: wild type, temperature: 37 C
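Note: PSI is a weighted mean of sequencing reads over stability bins, variants kept only with over 10 reads, mCherry proximal and sfGFP distal, peptide attached via GGGS linker.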

Row | Sequence | protein stability index (Saccharomyces cerevisiae [1]) | protein stability index (Saccharomyces cerevisiae [2]; [3]) | protein stability index (Saccharomyces cerevisiae [2]; [4]) | protein stability index (Saccharomyces cerevisiae [2]; [5]) | protein stability index (Saccharomyces cerevisiae [2]; [6]) | protein stability index (Saccharomyces cerevisiae [2]; [7]) | protein stability index (Saccharomyces cerevisiae [2]; [8]) | protein stability index (Saccharomyces cerevisiae [2]; [9])
1 | GGCILYFCMSIV | 0.4 ± 0.026 | 0.411 ± 0.021 | 0.492 ± 0.0065 | 0.387 ± 0.029 | 0.505 ± 0.011 | 0.371 ± 0.0097 | 0.374 ± 0.0063 | 0.472 ± 0.026
2 | LLHSLILLEWVF | 0.272 ± 0.021 | 0.148 ± 0.01 | 0.146 ± 0.02 | 0.19 ± 0.032 | 0.267 ± 0.011 | 0.145 ± 0.013 | 0.182 ± 0.02 | 0.238 ± 0.0042
3 | GGLRILLRLVWT | 0.454 ± 0.025 | 0.471 ± 0.052 | 0.47 ± 0.014 | 0.377 ± 0.033 | 0.488 ± 0.008 | 0.381 ± 0.011 | 0.345 ± 0.045 | 0.471 ± 0.014
4 | LLVFSSPPPAKF | 0.81 ± 0.023 | 0.91 ± 0.036 | 0.901 ± 0.018 | 0.799 ± 0.055 | 0.833 ± 0.025 | 0.808 ± 0.023 | 0.769 ± 0.026 | 0.869 ± 0.024
5 | AGVRLIFLFWGF | 0.4945 ± 0.0016 | 0.521 ± 0.05 | 0.608 ± 0.027 | 0.43 ± 0.037 | 0.6496 ± 0.0056 | 0.444 ± 0.028 | 0.407 ± 0.054 | 0.621 ± 0.036
6 | SFWLGVGIFFVG | 0.481 ± 0.021 | 0.544 ± 0.038 | 0.597 ± 0.022 | 0.434 ± 0.028 | 0.618 ± 0.028 | 0.405 ± 0.013 | 0.419 ± 0.023 | 0.559 ± 0.015
7 | CLVWLVRIIVLD | 0.298 ± 0.048 | 0.199 ± 0.019 | 0.268 ± 0.026 | 0.201 ± 0.031 | 0.366 ± 0.039 | 0.206 ± 0.005 | 0.195 ± 0.048 | 0.32 ± 0.025
8 | FLLFLPLLFFFL | 0.3904 ± 0.001 | 0.414 ± 0.037 | 0.396 ± 0.0095 | 0.396 ± 0.024 | 0.456 ± 0.013 | 0.4578 ± 0.0037 | 0.377 ± 0.018 | 0.4384 ± 0.0031
9 | IDTSRAATLLPA | 0.739 ± 0.012 | 0.675 ± 0.021 | 0.7136 ± 0.0016 | 0.606 ± 0.017 | 0.722 ± 0.011 | 0.611 ± 0.016 | 0.631 ± 0.028 | 0.7161 ± 0.0029
10 | EVSIISECKVAS | 0.258 ± 0.011 | 0.5081 ± 0.0025 | 0.639 ± 0.059 | 0.44 ± 0.019 | 0.585 ± 0.026 | 0.145 ± 0.013 | 0.175 ± 0.014 | 0.281 ± 0.015
11 | VAVFFGCCVKVG | 0.156 ± 0.026 | 0.149 ± 0.027 | 0.18 ± 0.02 | 0.191 ± 0.035 | 0.3258 ± 0.0018 | 0.0877 ± 0.0089 | 0.109 ± 0.024 | 0.141 ± 0.019
12 | LVVRLFVWDVVW | 0.347 ± 0.045 | 0.34 ± 0.016 | 0.374 ± 0.028 | 0.269 ± 0.043 | 0.473 ± 0.0097 | 0.224 ± 0.006 | 0.266 ± 0.028 | 0.436 ± 0.0076
13 | GRSVLIGLIVRC | 0.4701 ± 0.0034 | 0.417 ± 0.015 | 0.433 ± 0.014 | 0.332 ± 0.048 | 0.53715 ± 0.00026 | 0.437 ± 0.023 | 0.349 ± 0.022 | 0.479 ± 0.0083
14 | IGKEKRMKVIQI | 0.516 ± 0.065 | 0.65 ± 0.025 | 0.69 ± 0.022 | 0.624 ± 0.018 | 0.735 ± 0.019 | 0.433 ± 0.0078 | 0.477 ± 0.0096 | 0.615 ± 0.013
15 | LGVGVVPEFFVV | 0.464 ± 0.0065 | 0.659 ± 0.028 | 0.729 ± 0.014 | 0.592 ± 0.022 | 0.723 ± 0.023 | 0.332 ± 0.022 | 0.374 ± 0.022 | 0.527 ± 0.0086
16 | GCRSLRLWLTFS | 0.443 ± 0.029 | 0.638 ± 0.018 | 0.7023 ± 0.0065 | 0.628 ± 0.02 | 0.726 ± 0.013 | 0.299 ± 0.0033 | 0.312 ± 0.015 | 0.551 ± 0.024
17 | TPPIRCRLVRFL | 0.335 ± 0.029 | 0.656 ± 0.059 | 0.735 ± 0.017 | 0.626 ± 0.029 | 0.7526 ± 0.00097 | 0.2071 ± 0.0014 | 0.219 ± 0.018 | 0.496 ± 0.0056
18 | FPGLPVFFPPPL | 0.726 ± 0.015 | 0.707 ± 0.052 | 0.766 ± 0.015 | 0.689 ± 0.026 | 0.769 ± 0.012 | 0.709 ± 0.039 | 0.703 ± 0.011 | 0.731 ± 0.012
19 | PFYAYHFSLSVY | 0.0344 ± 0.01 | 0.13 ± 0.006 | 0.164 ± 0.0048 | 0.103 ± 0.028 | 0.227 ± 0.015 | 0.0245 ± 0.0025 | 0.0234 ± 0.0066 | 0.0924 ± 0.0037
20 | FRAKRTVFQRNS | 0.441 ± 0.012 | 0.671 ± 0.044 | 0.737 ± 0.039 | 0.668 ± 0.028 | 0.718 ± 0.01 | 0.2585 ± 0.0011 | 0.289 ± 0.0073 | 0.526 ± 0.021

Row | Sequence | protein stability index (Saccharomyces cerevisiae [1]) | protein stability index (Saccharomyces cerevisiae [2]; [3]) | protein stability index (Saccharomyces cerevisiae [2]; [4]) | protein stability index (Saccharomyces cerevisiae [2]; [5]) | protein stability index (Saccharomyces cerevisiae [2]; [6]) | protein stability index (Saccharomyces cerevisiae [2]; [7]) | protein stability index (Saccharomyces cerevisiae [2]; [8]) | protein stability index (Saccharomyces cerevisiae [2]; [9])
21 | VSYAVIVLVFKG | 0.329 ± 0.037 | 0.211 ± 0.056 | 0.317 ± 0.051 | 0.234 ± 0.026 | 0.463 ± 0.018 | 0.2 ± 0.022 | 0.22 ± 0.023 | 0.339 ± 0.04
22 | HYATLMSLRKVL | 0.27 ± 0.047 | 0.6682 ± 0.0023 | 0.716 ± 0.036 | 0.64 ± 0.022 | 0.7219 ± 0.0017 | 0.128 ± 0.0077 | 0.137 ± 0.022 | 0.316 ± 0.032
23 | SFGSMIITYAWG | 0.473 ± 0.034 | 0.616 ± 0.011 | 0.623 ± 0.0089 | 0.467 ± 0.021 | 0.638 ± 0.021 | 0.491 ± 0.065 | 0.486 ± 0.034 | 0.637 ± 0.026
24 | FRQEVLHWRQHS | 0.342 ± 0.077 | 0.622 ± 0.064 | 0.712 ± 0.032 | 0.633 ± 0.035 | 0.727 ± 0.028 | 0.167 ± 0.048 | 0.145 ± 0.035 | 0.332 ± 0.015
25 | FWFSFLLSGVCC | 0.347 ± 0.04 | 0.24 ± 0.031 | 0.171 ± 0.013 | 0.272 ± 0.029 | 0.29 ± 0.0029 | 0.257 ± 0.012 | 0.268 ± 0.022 | 0.266 ± 0.016
26 | YLSLPSSIFLCF | 0.422 ± 0.085 | 0.501 ± 0.022 | 0.504 ± 0.0066 | 0.461 ± 0.018 | 0.59 ± 0.019 | 0.498 ± 0.024 | 0.38 ± 0.015 | 0.5422 ± 0.0047
27 | HSLLLWLLVFFR | 0.413 ± 0.036 | 0.441 ± 0.013 | 0.511 ± 0.01 | 0.388 ± 0.027 | 0.516 ± 0.0056 | 0.3609 ± 0.0034 | 0.367 ± 0.018 | 0.508 ± 0.012
28 | EGLRVSVCAWVM | 0.339 ± 0.023 | 0.38 ± 0.043 | 0.467 ± 0.0075 | 0.313 ± 0.03 | 0.4385 ± 0.0017 | 0.253 ± 0.019 | 0.277 ± 0.013 | 0.421 ± 0.0079
29 | VLFIKKTLMRIQ | 0.396 ± 0.0084 | 0.558 ± 0.008 | 0.685 ± 0.0057 | 0.621 ± 0.0064 | 0.66 ± 0.015 | 0.268 ± 0.025 | 0.331 ± 0.027 | 0.537 ± 0.045
30 | FRFFRPSFRFFC | 0.2 ± 0.06 | 0.588 ± 0.015 | 0.713 ± 0.021 | 0.624 ± 0.0092 | 0.7518 ± 0.0026 | 0.107 ± 0.014 | 0.118 ± 0.0071 | 0.221 ± 0.033
31 | RALCPVPLLASS | 0.502 ± 0.1 | 0.55 ± 0.0098 | 0.59 ± 0.034 | 0.435 ± 0.026 | 0.5981 ± 0.00094 | 0.427 ± 0.026 | 0.455 ± 0.018 | 0.553 ± 0.024
32 | LVACLGYAVYCL | 0.46 ± 0.012 | 0.529 ± 0.042 | 0.557 ± 0.03 | 0.402 ± 0.024 | 0.573 ± 0.0087 | 0.369 ± 0.015 | 0.394 ± 0.017 | 0.5568 ± 0.0018
33 | RVHYELEQIVIK | 0.518 ± 0.089 | 0.632 ± 0.1 | 0.699 ± 0.019 | 0.581 ± 0.0072 | 0.664 ± 0.059 | 0.585 ± 0.053 | 0.574 ± 0.025 | 0.62 ± 0.064
34 | VGVIGWGVLGVG | 0.5 ± 0.01 | 0.475 ± 0.04 | 0.548 ± 0.0055 | 0.481 ± 0.011 | 0.541 ± 0.011 | 0.4866 ± 0.00011 | 0.481 ± 0.013 | 0.536 ± 0.0097
35 | VVFILLFFVFCR | 0.294 ± 0.019 | 0.253 ± 0.027 | 0.271 ± 0.016 | 0.24 ± 0.031 | 0.371 ± 0.0061 | 0.296 ± 0.013 | 0.25 ± 0.021 | 0.314 ± 0.022
36 | LVGWSWAACWLA | 0.408 ± 0.016 | 0.522 ± 0.057 | 0.608 ± 0.029 | 0.58 ± 0.024 | 0.712 ± 0.019 | 0.292 | 0.298 ± 0.012 | 0.396 ± 0.012
37 | HFRFSRYIRWVL | 0.237 ± 0.013 | 0.619 ± 0.08 | 0.7004 ± 0.0021 | 0.653 ± 0.02 | 0.746 ± 0.0079 | 0.139 ± 0.0018 | 0.151 ± 0.016 | 0.332 ± 0.0057
38 | RFTFSVVFCLSF | 0.47 ± 0.038 | 0.465 ± 0.011 | 0.5 ± 0.018 | 0.432 ± 0.011 | 0.504 ± 0.023 | 0.451 ± 0.022 | 0.436 ± 0.026 | 0.47 ± 0.012
39 | GMGYISVVVWSH | 0.208 ± 0.0092 | 0.0293 ± 0.0072 | 0.1 ± 0.029 | 0.141 ± 0.046 | 0.2283 ± 0.00048 | 0.104 ± 0.015 | 0.114 ± 0.017 | 0.155 ± 0.017

From the supplement of paper PMC10724198
